Results from the supplement of paper PMC12042874.
± gives the uncertainty stated by the source.

Test: amyloid nucleation score (Sup35N fusion, yeast selection) (log enrichment); library NNK2; higher = more nucleation; inactive = no reads after selection
In short: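 Yeast lacking psi expressed peptides of 20 random codons fused to Sup35N, received 100 μM copper sulfate for 24 hours, and were then grown for 7 days at 30°C on medium lacking adenine and uracil. Illumina sequencing of input and output plasmid inserts provided the reads. Nucleation scores are DiMSum log enrichments of output over input, centred on the mode of non-aggregating sequences. Any sequence with under 100 input reads was excluded.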

Substance | amyloid nucleation score
ESLMKSYVLSAYMCGPIGGR | 1.03 ± 0.37
DLFLRYY | inactive
YGILCAKLTAVCL | 1.44 ± 0.36
SRIGVLPDNVDTSAKLAYRL | 6.95 ± 0.078
IQVASRRIIM | 0.063 ± 0.21
RYMKAG | -0.558 ± 0.54
CKCYTAQCWVSRNLMKRPLT | 0.579 ± 0.49
DCLGVSFNDFQFLLVSAITR | inactive
SAFSVSYTKSAFSARTVDIK | -0.948 ± 0.33
YYQEHQTRLWIWSQHGLNAI | 0.864 ± 0.19
IVVQWMYVF | -0.382 ± 0.33
EKVSFASFMS | -1.31 ± 0.78
FGVIICAMSCQKD | 7.501 ± 0.026
RFTFFAGAS | 0.367 ± 0.21
WNAHN | -0.081 ± 1.1
YTLDMIIELSLDDGGYVVWG | 4.756 ± 0.04
VYNLN | -0.181 ± 0.41
FSVTMDGYIRI | 0.06 ± 0.44
KPDTMNFWVVLALNFDLGRT | 2.77 ± 0.099
YPPIISRLQY | inactive
WDHLFASFFFLPLMLYGRYY | inactive
DSWLFGDINRCFWLVKCYHR | 2.69 ± 0.075
YYAGLVTSDWNTRSLGGMCE | -0.506 ± 1
VRSVGGTLASPWRAYGC | 0.527 ± 0.57
EHLCPYF | 0.667 ± 0.46

Substance | amyloid nucleation score
FLNESGSFWCSGFLIWVMRM | -0.568 ± 0.76
SHCLNLGDLRVGYKSGM | inactive
DRVSVVIAGDQKPEFRRGKR | -0.469 ± 0.45
GTMDITYTY | 2.44 ± 0.11
DEWQRGRTLSDTF | -0.295 ± 0.76
GFWEGRILG | 2.61 ± 0.22
SWTCFTLVVRRTAGYWVWSA | 0.331 ± 0.33
SYSDPETFISWVLVDWCLMS | -0.753 ± 0.55
LPDIFLSVYKLLVYKSLLPA | 0.073 ± 0.53
NAERSESLYNYKMAGPYGEG | -0.661 ± 1.1
QKMRFYWLVMMAV | -0.283 ± 1
GTSRLNVEGGLYCRGSIVDV | -0.299 ± 0.37
YHVPSGTCATR | 0.912 ± 0.58
EYVADHGQIADGR | 0.782 ± 0.26
NLGDVSYTSSFG | 1.31 ± 0.43
SSSALEANINQSMEDIKEAF | -0.427 ± 1.1
RYWLLKFNCVLWEISFCRTM | 5.89 ± 0.07
CYCSSL | -0.253 ± 0.2
YGGDLYLIFDLLDRVILL | inactive
TFFNNWMALKYRNYQFIMSG | inactive
FTFDMVSSKSQYMNIDRNVR | -0.996 ± 0.78
NGSYGSYMHFPEPIMSIFMY | inactive
SGFII | -1.18 ± 1.1
LGLRDELTVVVCWFRTYLIR | 4.634 ± 0.044
YYQSIGLQYSRMKMGCKRND | 0.882 ± 0.18

Substance | amyloid nucleation score
LCKYDGCMIAYGVLHSSSAG | 0.651 ± 0.26
MFLKVSLVGNMVSEKPGRSS | 3.21 ± 0.15
EVTWDVLAIVLTLMKKA | 4.27 ± 0.083
SSWSLCIYLINRKKAEYVVI | 0.462 ± 0.53
DATNQRYVPRLFHKMSITGS | 0.848 ± 0.57
CYARSASGVAIAVRRKRGVQ | 1.23 ± 0.18
GVVNLTD | 3.01 ± 0.061
NWRTCLALNCLTDPAKYLIN | -0.725 ± 0.76
SFYVNMSSFFRSLEEV | inactive
TPSRFWPMLFSVNLWLRGWL | 0.017 ± 0.62
IRLPPRRAFHNEFFVDLHRG | -1.91 ± 0.76
LDRGVVSLRLLFARAHNYSK | 2.88 ± 0.15
RYHDLGI | -0.093 ± 0.2
YFLALAYRAVPLLWYRPRGL | 0.751 ± 0.38
HPHKS | -0.325 ± 0.76
ARCIQVMVIGISWRVGCMPT | 0.521 ± 0.36
NIFEYPGYRRYVCCVGWV | 4.551 ± 0.044
GCLPHGY | 0.663 ± 0.62
FINKIKVRLNLMSGSANRLL | 4.57 ± 0.11
NHVCRIVTMFGVPSRSN | inactive
VNTSFATFSSVSLEGLLSMV | -0.595 ± 0.3
NYVCSWMLRFSVGRSQIPAV | -0.924 ± 0.76
RHTFLVSAGYKERMVGMTSG | -1.12 ± 0.63
DSLTQILTVSCVCYEESMRI | -0.613 ± 0.48
SWTCHGGNLYS | 0.222 ± 0.8

Substance | amyloid nucleation score
FYISKFLAWFIIPSGLFLGN | -1.72 ± 1.1
RNLGIHKSLFNSAYARAWAV | -0.771 ± 0.49
KSRWRQRILVPIPWWARHVE | 0.239 ± 0.29
TLFQFWKYLVSTTCIML | 3.18 ± 0.11
EKGNVGSQANTLVRCSGLTW | 1.17 ± 0.21
PRPRWRYCFACRLAVFGTVG | 6.83 ± 0.036
FLLNIDTFSLMRSVTANTLV | -0.697 ± 0.48
FSFLHFVERLTGHLIYFSRF | inactive
FEFVYFVRSIG | -0.129 ± 0.5
PGCHEVSKF | -1.14 ± 0.47
LFLQGRNQLDTHWFCPACPM | -0.727 ± 0.55
PVIFGTR | 0.192 ± 1
TVWRARLGSPCGFLCVDRSW | 0.414 ± 0.53
LRMMYRFGVCYVLL | 0.399 ± 0.31
PFSFRLSGINSPPVISVA | -1.16 ± 0.41
TFMAIRSLNSSASGWATGF | 3.01 ± 0.049
DFSLSGCPGMNRGDYDLHSK | inactive
CFFRKMPHCRLTTWRRVASI | 0.675 ± 0.25
WEIYIGTLTIKWLFTMDRLV | -0.133 ± 0.23
RTYILYSDFGCRRCDY | 3.56 ± 0.1
LCNMHIMRFNM | -1.07 ± 1.1
WSHGHIFIRD | inactive
VKLEMD | -0.617 ± 0.21
IKCWAPLNCSGGLVGHDQAV | -0.562 ± 0.44
WCSKKPDEFLTINAFRYWED | -0.736 ± 0.34

Substance | amyloid nucleation score
SFLKSMMAPIYKCSVWCSML | -0.819 ± 0.64
TYGLVTRTGAV | 0.247 ± 0.43
SSRDKILTSMKIWMLRFLAN | 0.37 ± 0.51
GEFSLF | 0.2 ± 0.37
GICHWGLLFTACFIPWRMRG | 1.37 ± 0.32
SMKHRHSRMVTFGVLV | 0.163 ± 0.28
GSWLCCSLRWSSSALGVGWA | 1.12 ± 0.39
TRVNNGSTVHNKMLTS | 0.634 ± 0.74
HVCCFKSQDRCYWVG | -0.447 ± 0.63
GTRLNYFNWIICGGETGCAA | -0.171 ± 1
LWPCSCFVRRCYECFEGDAG | 3.2 ± 0.057
KRNVRFVGMITKRMSRSRPI | 0.511 ± 0.43
NCEVFNGDALWRSFTGRYLM | 0.042 ± 1.1
MNCVGG | -0.389 ± 0.61
EKTFRFADYLMCPASSRSSV | -0.082 ± 0.4
QLPSR | -0.243 ± 0.31
VNIERGFLRLKRLD | -0.316 ± 1.1
SLAYRFRWKLGNKVKF | 2.02 ± 0.1
WKHMSRR | 0.639 ± 0.66
PVLDGHCSWGGLSTAEETDR | 0.29 ± 0.29
ALSYFTGCRF | 0.766 ± 0.47
CHNNFVYRGNAPRRHLEQGV | 0.062 ± 0.77
SLEPYMFCSILINFYFFISV | 3 ± 0.14
TRCKHDDVW | 1.5 ± 0.33
VFLSRVFNSF | -0.317 ± 0.79

Substance | amyloid nucleation score
DRLMLALGKGHGFEIGGPVL | 1.37 ± 0.39
WCKLDWLIWGIEQRP | 0.063 ± 1.1
NFPMSSFKEEIWLRTRVPLC | 0.691 ± 0.66
YRSWIGYCSNDVSQTLCTVM | 9.164 ± 0.024
MSTIEYSDGVEGRHILCLIA | 1.2 ± 0.35
VFDEVVVDTLKWWSCVSAGI | -0.484 ± 0.54
QVLCIVLDTSMIGTKACLGV | 0.325 ± 0.57
MSGSDNLILYSSV | -0.212 ± 0.45
PVGEEVADVMLTFYKHHLVD | -0.913 ± 1.1
RLSVTLL | -0.157 ± 0.24
SVSGTLFPGYCWGNGKAGHF | 1.56 ± 0.091
TTSLSYFLIQKALLWKVEYH | -1.38 ± 0.38
RYYDLTNVVRPHYPCAHGDV | 7.333 ± 0.054
LHFSICMPTGCDVPPGDKGG | inactive
QNACH | -0.011 ± 1.1
YSYSSFLKVSGLSSDRLGYI | -0.133 ± 0.49
VNVGKCNRTVGIWLLWKVNA | 0.584 ± 0.44
YFYNGWRERARSEQCNHRT | 0.441 ± 0.43
CKSSARLIDYTS | -0.682 ± 0.45
NRLYSNRGQLNSLCISWFSG | inactive
LYWNVAGLGPQYKSLCLGFR | -0.753 ± 0.56
HWDLIGGVL | -0.176 ± 1.1
YIFLIMCRWYSATLIRKTSC | -0.584 ± 0.76
QGLMIVINGSSYYVYVCLKG | 1.09 ± 0.12
SERFDRAY | -1.2 ± 0.42

Substance | amyloid nucleation score
TYICT | -0.59 ± 0.24
FRIKAEVGPIYTYDTGSFNW | -0.162 ± 0.27
QEAALG | 1.27 ± 0.35
NSRQYSVMIVQLIPCCQLIP | 0.033 ± 0.6
HTKVRGKRLCGDWSVRISCS | 0.733 ± 0.29
NYFSTDMGFCLRDTYCRCEI | 4.68 ± 0.089
FTAFWGYSTSVFHMDMCLRK | 2.17 ± 0.071
VFNLL | inactive
LMHWV | -0.94 ± 0.38
FNSSLWVFRIPNCCNRSAYC | inactive
LMTPVNSILLRLWCSIFLCF | 3.26 ± 0.12
GRILNAEVFGVINASDNCAD | -0.412 ± 0.63
LVQFHRLPRTRWGEFVRGDH | 3.84 ± 0.092
TYDWEFFNDYYQM | 0.161 ± 0.77
IGDYLRLELVL | 0.187 ± 0.74
RLRDDENIGIFMTF | -1.15 ± 1
RTDSGTMMCRVWAMYPESTS | 1.22 ± 0.41
FNCEGLVNS | -1.25 ± 0.64
ECHANASFFLCRGAERSACG | 0.783 ± 0.58
VPLGECIPNFLSTYGGYVVS | -0.287 ± 0.33
LLVRTYKLMMFHSLGIG | -0.583 ± 1
RHHGVRIYMRNFGNVYVYIR | 3.85 ± 0.11
NYWRDGQNDLGWLSLANFFK | inactive
